From patent publication US20260139057A1 (University of California, published 2026) come the findings set out here.

Assay [1] deals with T1, recombinant human integrin αvβ8 ectodomain (human, UniProt P06756 31-992; P26012 43-681). Put plainly: cell-based or functional assay.
Assay [2] concerns the target T2, integrin αvβ1 ectodomain (immobilized) (Homo sapiens (Human), UniProt P06756 31-992; P05556 21-728).
T2 construct: R&D Systems; copies: 1 + 1
Kind of assay: binding to immobilized integrin ectodomains blocked with BSA.

Assay [3] concerns the target T3, integrin αvβ5 ectodomain (immobilized) (Homo sapiens (Human), UniProt P06756 31-992; P18084 24-719).
T3 construct: R&D Systems; copies: 1 + 1
The assay is described as above.

The target of assay [4] is integrin αvβ6 ectodomain (immobilized) (human, UniProt P06756 31-992; P18564 22-709). Kind of assay: cell-based or functional assay.
integrin αvβ6 ectodomain (immobilized), sequence (P06756 31-992, chain 1 of 2): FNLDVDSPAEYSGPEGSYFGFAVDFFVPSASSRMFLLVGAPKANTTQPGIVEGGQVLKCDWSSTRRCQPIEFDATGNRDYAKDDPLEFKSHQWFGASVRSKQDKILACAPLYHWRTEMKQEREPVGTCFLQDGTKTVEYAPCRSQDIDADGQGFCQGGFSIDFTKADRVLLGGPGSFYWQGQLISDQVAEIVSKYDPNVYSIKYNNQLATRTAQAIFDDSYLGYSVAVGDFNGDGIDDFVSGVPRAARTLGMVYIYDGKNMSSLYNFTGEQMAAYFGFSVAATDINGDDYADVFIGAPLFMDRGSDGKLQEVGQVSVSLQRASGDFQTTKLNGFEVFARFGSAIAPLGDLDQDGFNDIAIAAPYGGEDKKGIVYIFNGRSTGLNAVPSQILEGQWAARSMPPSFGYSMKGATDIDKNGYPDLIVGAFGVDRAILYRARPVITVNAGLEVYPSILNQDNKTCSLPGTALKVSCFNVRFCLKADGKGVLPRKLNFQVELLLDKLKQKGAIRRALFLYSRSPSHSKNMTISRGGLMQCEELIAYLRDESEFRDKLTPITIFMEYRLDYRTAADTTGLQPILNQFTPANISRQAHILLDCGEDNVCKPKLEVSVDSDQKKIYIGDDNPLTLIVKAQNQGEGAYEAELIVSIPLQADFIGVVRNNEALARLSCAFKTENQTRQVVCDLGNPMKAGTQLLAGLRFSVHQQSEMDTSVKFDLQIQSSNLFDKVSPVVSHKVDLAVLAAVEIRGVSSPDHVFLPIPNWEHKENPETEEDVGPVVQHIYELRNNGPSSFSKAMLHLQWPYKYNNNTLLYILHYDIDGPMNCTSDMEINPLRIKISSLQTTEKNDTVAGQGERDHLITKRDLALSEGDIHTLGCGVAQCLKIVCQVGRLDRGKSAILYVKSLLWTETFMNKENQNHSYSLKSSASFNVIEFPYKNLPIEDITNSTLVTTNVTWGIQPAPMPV
integrin αvβ6 ectodomain (immobilized), sequence (P18564 22-709, chain 2 of 2): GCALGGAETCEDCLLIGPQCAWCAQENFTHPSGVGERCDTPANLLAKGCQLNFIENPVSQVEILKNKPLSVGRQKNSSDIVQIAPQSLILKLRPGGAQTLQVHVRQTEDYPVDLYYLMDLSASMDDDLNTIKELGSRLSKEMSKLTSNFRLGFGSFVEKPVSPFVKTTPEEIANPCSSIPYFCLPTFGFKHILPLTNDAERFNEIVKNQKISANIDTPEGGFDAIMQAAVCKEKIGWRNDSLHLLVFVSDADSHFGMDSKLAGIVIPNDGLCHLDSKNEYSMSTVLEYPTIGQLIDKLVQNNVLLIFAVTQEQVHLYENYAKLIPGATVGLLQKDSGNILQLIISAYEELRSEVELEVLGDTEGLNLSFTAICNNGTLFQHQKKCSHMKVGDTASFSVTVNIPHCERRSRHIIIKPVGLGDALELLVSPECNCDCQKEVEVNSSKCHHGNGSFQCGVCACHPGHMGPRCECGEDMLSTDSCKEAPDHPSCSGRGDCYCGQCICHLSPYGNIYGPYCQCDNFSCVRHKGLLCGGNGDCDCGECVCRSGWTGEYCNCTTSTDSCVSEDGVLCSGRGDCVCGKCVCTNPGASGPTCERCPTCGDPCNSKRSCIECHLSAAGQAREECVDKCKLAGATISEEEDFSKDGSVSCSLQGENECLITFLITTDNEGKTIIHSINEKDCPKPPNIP
The target of assay [5] is T4, integrin αvβ3 on HEK 293 cells stably expressing αvβ3 (Homo sapiens (Human), UniProt P06756 31-1048; P05106 27-788).
T4 construct: also called αvβ3 expressing 293 cells
Put plainly: flow cytometry on HEK 293 cells stably expressing αvβ3. From the text:
A) Binding of anti-β3 (AP3) relative to F12 IgG4, H4C8 RGD1 IgG4,H4C8 RGD3 IgG4, H3C8 RGD3 with VL Fr4 V108/L109 (mouse) IgG4, H4C8 RGD3 IgG4, H3C8 RGD3 VL Fr4 K108/V109 (human) IgG4, H4C8 RGD1 VH Fr3 E72, H4C8 RGD3 VH Fr3 E72 IgG4. HEK 293 cells stably expressing αvβ3 were stained and the percentage of relative binding to the mean fluorescence intensity of AP3 is shown, B) Expi293 cells transiently expressing αvβ6 were stained and the percentage of relative binding to the mean fluorescence intensity of 3G9 is shown, C) HEK 293 cells stably expressing αvβ8 were stained and the percentage of relative binding to the mean fluorescence intensity of HuF12 is shown. All primary antibodies were used at 2.5 ug/ml. […] Binding or 3G9 is shown and percent binding of antibodies relative to 3G9 binding to αvβ6 is shown. Dotted line indicate binding observed with each positive control antibody,
RGD ligands bind promiscuously to a number of integrins. A highly desirable quality in RGD-mimetics is to retain specificity for some but not all integrins. One highly desirable property would be a dual inhibitor to both the αvβ8- and αvβ6-integrins, without cross-reactivity to other integrins. This property would facilitate specific targeting of integrin-mediated TGF-β activation without the liability of side-effects mediated by broadly blocking other integrins. We first measured binding to αvβ3 expressing 293 cells. Binding of anti-β3 (AP3) relative to F12 IgG4, H4C8 RGD1 IgG4,H4C8 RGD3 IgG4, H3C8 RGD3 with VL Fr4 V108/L109 (mouse) IgG4, H4C8 RGD3 IgG4, H3C8 RGD3 VI Fr4 K108/V109 (human) IgG4, H4C8 RGD1 Vh Fr3 E72, H4C8 RGD3 Vh Fr3 E72 IgG4. […] Expi293 cells transiently expressing αvβ6 were stained and the percentage of relative binding to the mean fluorescence intensity of anti-β6 (3G9) determined.
Background: A flow cytometer gives signals particle by particle.

The target of assay [6] is T2, integrin αvβ1 ectodomain (immobilized). Put plainly: binding to immobilized ectodomains.
Assay [7] addresses T3, integrin αvβ5 ectodomain (immobilized). Put plainly: binding to immobilized ectodomains.
Assay [8] addresses T1, recombinant human integrin αvβ8 …. Kind of assay: MFI against concentration, fit y = m1 + m2*M0/(m3+M0), m3 = KD; paragraph 50 and paragraph 227 give these KD values for the yeast scFv with soluble αvβ8, the legend of FIG. 17 speaks of IgG4 on CHO αvβ8 cells.
Assay [9] has the same target. Kind of assay: yeast-displayed scFv titrated with αvβ8 ectodomain, flow cytometry, hyperbolic fit. On the procedure:
After induction and screening of the pooled transformants for scFV expression using anti-V5 (clone SV5), the avb8 ectodomain was incubated with the yeast pool, washed and scFV which bound to αvβ8 were detected using anti-human αv (clone 8β8). After multiple rounds of selection by sorting yeast stained under conditions of increasing stringency (Low Ag concentration, short Kon and long Koff), individual clones were isolated, sequenced and tested for binding affinity. Shown are the sequences of VH and VL pairs enriched in the library. The binding affinities of representative yeast clones was determined using a least-squares fit model based on the hyperbolic equation y=m1+m2*m0/(m3+m0), where y=MFI at different αvβ8 concentrations; m0=αvβ8 concentration; m1=MFI with no αvβ8; m2=MFI at saturation; and m3=KD. […]
We then created a scFV yeast display library (Library 3) with degenerate positions coding for novel amino acids (i.e. not in germline human or mouse Ig sequence databases), back mutations to mouse from clone H1.1, as well as final humanization of Fr4 VH and VL based on the human germline (SEQ ID NO: 29, 30 and 32). […] After induction and screening of the pooled transformants for scFV expression using anti-V5 (clone SV5), the αvβ8 ectodomain was incubated with the yeast pool, washed and scFV which bound to αvβ8 were detected using anti-human αv (clone 8β8). […]

For assay [10] the target is unchanged. Kind of assay: KinExA; antibody format and antigen form not stated. (A kinetic exclusion assay measures how much of one partner remains free in solution.)
For assay [11], the target named is T5, human integrin αvβ8 on transfected cells (CHO cells stably transfected; HEK 293 cells stably expressing αvβ8) (human, UniProt P06756 31-1048; P26012 43-769).
T5 construct: whole, on cells; also called CHO αvβ8 cells; αvβ8 expressing CHO cells
Put plainly: flow cytometry on CHO cells expressing human αvβ8 fixed in 2% buffered formalin for 15 min, antibody titrated, hyperbolic least-squares fit (m3 = KD); curves on D00025 [Cont.]. On the procedure: (§1) FIG. 17: Characterization of cell surface binding of humanized affinity optimized anti-αvβ8 antibodies. The cell surface binding affinities of H4C8, H4G9, H4C10, H4G8 compared to HuC6D4F12 expressed as IgG4 (S228P to prevent arm exchange, R409K and L445P to reduce aggregation and to promote stability). […] Cell surface affinity was determined using the least-squares fit model based on the hyperbolic equation y=m1+m2*m0/(m3+m0), where y=MFI at different avb8 concentrations; m0=αvβ8 concentration; m1=MFI with no αvβ8; m2=MFI at saturation; and m3=KD.
(§2) FIG. 18: Binding characteristics of H4C8 of formalin fixed αvβ8 compared to HuC6D4F12 or ADWA11 2.4 (from Pat no. US2020/0079855 A1). CHO αvβ8 expressing cells were fixed in 2% buffered formalin in PBS for 15 min at RT and then stained at the indicated concentrations as described in FIG. 17. The binding affinities to unfixed or formalin fixed cells is shown. Cell surface affinity was determined using the least-squares fit model based on the hyperbolic equation y=m1+m2*m0/(m3+m0), where y=MFI at different αvβ8 concentrations; m0=αvβ8 concentration; m1=MFI with no αvβ8; m2=MFI at saturation; and m3=KD.

The target in assay [12] is T5, human integrin αvβ8 on transfected …. Kind of assay: flow cytometry on unfixed CHO cells expressing human αvβ8, antibody titrated, hyperbolic least-squares fit (m3 = KD); curves on D00025 [Cont.]. Here is the method:
as §1, §2

T2 sequence (P06756 31-992 limits assumed, chain 1 of 2): as the sequence (P06756 31-992, chain 1 of 2) above
T2 sequence (P05556 21-728 limits assumed, chain 2 of 2): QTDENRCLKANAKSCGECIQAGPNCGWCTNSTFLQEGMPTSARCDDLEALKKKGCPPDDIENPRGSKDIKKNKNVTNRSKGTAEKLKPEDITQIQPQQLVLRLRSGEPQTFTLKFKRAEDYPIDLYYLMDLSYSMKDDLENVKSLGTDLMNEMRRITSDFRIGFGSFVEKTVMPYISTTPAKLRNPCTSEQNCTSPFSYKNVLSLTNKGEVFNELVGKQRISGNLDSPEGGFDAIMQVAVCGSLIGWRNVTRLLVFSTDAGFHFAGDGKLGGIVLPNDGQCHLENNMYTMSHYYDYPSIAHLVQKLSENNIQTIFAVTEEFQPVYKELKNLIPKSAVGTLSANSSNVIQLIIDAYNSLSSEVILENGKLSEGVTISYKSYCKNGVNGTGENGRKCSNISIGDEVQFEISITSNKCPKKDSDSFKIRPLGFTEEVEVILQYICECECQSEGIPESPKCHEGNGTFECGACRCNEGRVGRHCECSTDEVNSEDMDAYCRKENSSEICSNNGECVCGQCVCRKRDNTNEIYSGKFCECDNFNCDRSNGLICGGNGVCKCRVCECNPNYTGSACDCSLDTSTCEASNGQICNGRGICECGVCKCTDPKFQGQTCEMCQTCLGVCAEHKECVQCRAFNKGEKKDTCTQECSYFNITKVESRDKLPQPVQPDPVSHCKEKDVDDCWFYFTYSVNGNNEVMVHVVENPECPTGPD
T3 sequence (P06756 31-992 limits assumed, chain 1 of 2): as the sequence (P06756 31-992, chain 1 of 2) above
T3 sequence (P18084 24-719 limits assumed, chain 2 of 2): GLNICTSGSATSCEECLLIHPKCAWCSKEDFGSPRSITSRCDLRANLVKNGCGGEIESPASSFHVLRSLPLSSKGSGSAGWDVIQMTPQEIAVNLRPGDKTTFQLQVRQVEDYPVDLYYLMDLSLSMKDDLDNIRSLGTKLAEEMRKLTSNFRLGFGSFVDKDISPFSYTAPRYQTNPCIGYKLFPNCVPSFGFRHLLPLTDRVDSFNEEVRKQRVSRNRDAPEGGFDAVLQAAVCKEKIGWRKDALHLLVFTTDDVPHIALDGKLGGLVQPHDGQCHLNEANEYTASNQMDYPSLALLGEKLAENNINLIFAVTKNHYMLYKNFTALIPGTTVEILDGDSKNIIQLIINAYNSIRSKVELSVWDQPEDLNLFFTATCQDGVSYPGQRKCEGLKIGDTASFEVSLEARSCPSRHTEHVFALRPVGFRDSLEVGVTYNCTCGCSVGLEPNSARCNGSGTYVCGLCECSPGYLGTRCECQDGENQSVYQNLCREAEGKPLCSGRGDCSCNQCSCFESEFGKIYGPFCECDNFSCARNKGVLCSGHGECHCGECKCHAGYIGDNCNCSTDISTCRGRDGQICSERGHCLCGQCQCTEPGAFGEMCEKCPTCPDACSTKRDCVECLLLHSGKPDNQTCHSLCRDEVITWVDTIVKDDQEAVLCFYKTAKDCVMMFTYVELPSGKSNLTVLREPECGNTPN
T1 sequence (P06756 31-992 limits assumed, chain 1 of 2): as the sequence (P06756 31-992, chain 1 of 2) above
T1 sequence (P26012 43-681 limits assumed, chain 2 of 2): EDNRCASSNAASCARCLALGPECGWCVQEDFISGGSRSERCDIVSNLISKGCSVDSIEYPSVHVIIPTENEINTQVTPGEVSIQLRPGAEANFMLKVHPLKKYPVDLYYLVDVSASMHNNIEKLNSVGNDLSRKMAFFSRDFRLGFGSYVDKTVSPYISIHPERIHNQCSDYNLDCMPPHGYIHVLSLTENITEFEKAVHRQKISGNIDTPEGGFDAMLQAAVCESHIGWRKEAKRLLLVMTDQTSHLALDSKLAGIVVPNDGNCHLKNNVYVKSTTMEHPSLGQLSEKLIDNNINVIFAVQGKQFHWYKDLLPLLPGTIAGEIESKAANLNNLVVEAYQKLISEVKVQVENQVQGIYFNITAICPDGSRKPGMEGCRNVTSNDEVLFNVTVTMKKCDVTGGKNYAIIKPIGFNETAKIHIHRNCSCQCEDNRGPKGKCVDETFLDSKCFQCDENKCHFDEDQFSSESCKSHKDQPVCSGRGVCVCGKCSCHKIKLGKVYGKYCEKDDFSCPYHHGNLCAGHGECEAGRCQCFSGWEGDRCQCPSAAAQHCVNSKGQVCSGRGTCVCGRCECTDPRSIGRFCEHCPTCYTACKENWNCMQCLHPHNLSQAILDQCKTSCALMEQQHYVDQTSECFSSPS

B1: H4C8 RGD3, human IgG4 (antibody, V domains shown)
VH: QVQLVQSGAEVKKPGASVKVSCKVSGYTLTRQSMHWVRQAPGKGLEWMGRINTETGEPTYAQKFQGRVTMTQDTSTDTAYMELSSLRSEDTAVYFCAIFYYGRDTWGQGTTVTVSS
VL: EIVMTQSPATLSVSPGERVTLSCKSSQSLLGRGDLGRLKKNALAWYQQKPGQAPRLLIYWASTRETGVPARFSGSGSGTEFTLTISSLQSEDFAVYYCKQSYNLLSFGQGTKVEIKR
notes: also called H4C8 RGD3 IgG4
For the molecule B1, in [1], the “ED50 of the inhibition of αvβ8-mediated TGF-β activation (immobilized human αvβ8, TMLC GARP/L-TGF-β reporter cells)” value stood at 0.02 µg/mL. The values for the binding result in [2], in assay [3] and in [5] were “no binding”, “no binding” and “no binding (tested: 2.5 µg/ml)”, respectively. For the same molecule, the “ED50 of the inhibition of αvβ6-mediated TGF-β activation (immobilized human αvβ6, TMLC GARP/L-TGF-β reporter cells)” value in [4] stood at 0.03 µg/mL.

B2: H3C8 RGD3, human IgG4 (VL Fr4 K108/V109, human) (antibody, V domains shown)
VH: QVQLVQSGAEVKKPGASVKVSCKVSGYTLTEQSMHWVRQAPGKGLEWMGRINTETGEPTYAQKFQGRVTMTQDTSTDTAYMELSSLRSEDTAVYFCAIFYYGRDTWGQGTTVTVSS
VL: EIVMTQSPATLSVSPGERVTLSCKSSQSLLGRGDLGRLKKNALAWYQQKPGQAPRLLIYWASTRETGVPARFSGSGSGTEFTLTISSLQSEDFAVYYCKQSYNLLSFGQGTKVEIKR
notes: also called H3C8 RGD3 VL Fr4 K108/V109 (human) IgG4
B2: the binding result in [6] was “no binding”; in [7], “no binding”; in assay [5], “no binding (tested: 2.5 µg/ml)”. Also, the “ED50 of the inhibition of αvβ8-mediated TGF-β activation (immobilized human αvβ8, TMLC GARP/L-TGF-β reporter cells)” value in assay [1] was determined as 0.84 µg/mL. In assay [4], the “ED50 of the inhibition of αvβ6-mediated TGF-β activation (immobilized human αvβ6, TMLC GARP/L-TGF-β reporter cells)” value turned out to be 0.07 µg/mL.

B3: H4C8 RGD1, human IgG4 (antibody, V domains shown)
VH: QVQLVQSGAEVKKPGASVKVSCKVSGYTLTRQSMHWVRQAPGKGLEWMGRINTETGEPTYAQKFQGRVTMTQDTSTDTAYMELSSLRSEDTAVYFCAIFYYGRDTWGQGTTVTVSS
VL: EIVMTQSPATLSVSPGERVTLSCKSSQSLLRRGDLATIHGNALAWYQQKPGQAPRLLIYWASTRETGVPARFSGSGSGTEFTLTISSLQSEDFAVYYCKQSYNLLSFGQGTKVEIKR
notes: also called H4C8 RGD1 IgG4
Regarding B3, the “ED50 of the inhibition of αvβ8-mediated TGF-β activation (immobilized human αvβ8, TMLC GARP/L-TGF-β reporter cells)” value in [1] worked out at 0.07 µg/mL. Moreover, the binding result in [2] is listed as “no binding”; in assay [3], “no binding”; in [5], “no binding (tested: 2.5 µg/ml)”. Moreover, in assay [4], the “ED50 of the inhibition of αvβ6-mediated TGF-β activation (immobilized human αvβ6, TMLC GARP/L-TGF-β reporter cells)” value is 0.04 µg/mL.

B4: H4C8 scFv displayed on yeast (scFv, V domains shown)
VH: QVQLVQSGAEVKKPGASVKVSCKVSGYTLTRQSMHWVRQAPGKGLEWMGRINTETGEPTYAQKFQGRVTMTQDTSTDTAYMELSSLRSEDTAVYFCAIFYYGRDTWGQGTTVTVSS
VL: EIVMTQSPATLSVSPGERVTLSCRSSQSLLHSRSRKNYLAWYQQKPGQAPRLLIYWASTRETGVPARFSGSGSGTEFTLTISSLQSEDFAVYYCKQSYNLLSFGQGTKVEIKR
notes: scFv in pYD4 on yeast
As for B4, the Kd – broadly, the equilibrium constant for the complex coming apart – in assay [8] stood at 3.76 nM; in assay [9], 3.8 nM.

B5: HuC6D4F12 (format not stated) (antibody, V domains shown)
VH: QIQLVQSGAEVKKPGASVKISCKASGYTFTKYSMHWVRQAPGQGLEWVARINTETGEPTFADDFRGRFTVTLDTSTSTAYLEIRSLRSDDTAVYFCAIFYYGRDTWGQGTTLTVSS
VL: EIVMTQSPATLSVSPGERVTMSCKSSQSLLHSRSRKNYLAWYQQKPGQAPRLLIYWASTRESGVPARFSGSGSGTEFTLTISSVQSEDFAVYYCKQSYNLLSFGQGTVLEIKR
notes: also called HuF12; huF12
With B5, the Kd in assay [10] was 0.00236 nM; in assay [11], 6.4 nM; in assay [12] it was 2.6 nM.

B6: HuC6D4 (format not stated) (antibody, V domains shown)
VH: QIQLVQSGAEVKKPGASVKISCKASGYTFTDYSMHWVRQAPGQGLEWVARINTETGEPTFADDFRGRFTVTLDTSTSTAYLEIRSLRSDDTAVYFCAIFYYGRDTWGQGTTLTVSS
VL: EIVMTQSPATLSVSPGERVTMSCKSSQSLLNSRSRKNYLAWYQQKPGQAPRLLIYWASTRESGVPARFSGSGSGTEFTLTISSVQSEDFAVYYCKQSYNLLSFGQGTVLEIKR
With B6, the Kd in assay [10] is 0.0821 nM.
